According to patent US20120178908A1 (Novo Nordisk, published 2012):
* marks the point of attachment. Biotin = O=C1N[C@H]2[C@H](CS[C@H]2CCCCC(=O)*)N1; AEEA = NCCOCCOCC(=O)O

Key:
[1] = biological target: T1, TLT1 (human TLT-1, reagent of the SPR studies, source NN) (human, UniProt Q86YW5 16-162, limits assumed); experiment: SPR (Biacore), mAb captured via anti-human Fc mAb, TLT1 as analyte
T1 sequence: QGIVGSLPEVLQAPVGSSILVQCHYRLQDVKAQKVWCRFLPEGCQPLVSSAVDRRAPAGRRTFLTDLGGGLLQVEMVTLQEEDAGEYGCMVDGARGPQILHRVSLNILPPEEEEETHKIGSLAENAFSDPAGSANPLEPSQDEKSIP
Experimental: The mAbs of interest were either immobilized directly to a CM5 chip or by capture via a human Fc capture mAb immobilized to a CM5 chip.
Capture via human Fc mAb: Human Fc mAb was immobilised to approx 10.000 RU. The mAb of interest was added (approx 100 nM). Two-fold dilutions of TLT1 from 200 nM to 0.2 nM were tested. Running and dilution buffer: 10 mM HEPES, 150 mM, 0.005% p20, pH 7.4. Regeneration was obtained in 3 M MgCl₂

[2] = biological target: T2, biotinylated 20mer TLT-1 stalk peptide 10 (N-terminal biotin via 8-amino-3,6-dioxaoctanoic acid (bio-Oeg)); experiment: peptide-walk ELISA, biotin-peptide on streptavidin plate, triple determination
T2 construct: also called well A10
T2 peptide: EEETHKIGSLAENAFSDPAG
Experimental: (§1) Epitope mapping by peptide walk. The peptide walking ELISA defined the minimal binding region of the peptide. This was established by coating biotinylated peptides with one residue frameshift in the stalk region of TLT-1 in streptavidin plates followed by binding of the antibody of interest (mAb 0061). A secondary antibody was added for detection and binding was measured at 450 nm. Positive control: binding to biotinylated TLT-1.
(§2) 1) 20mer peptide mapping with one residue frameshift (20,1) (see materials) 2) 16mer peptide mapping with one residue frameshift (16,1) (see materials) [0687] 1. Plate was prre-washed 3× with 250 μl wash buffer [0688] 2. 100 μl Biotinylated peptide-solution was added (from Masterplate 10000× diluted, one peptide pr well) [0689] 3. Incubated at RT for 1 hour or +5° C. over night [0690] 4. Washed 3× with wash buffer [0691] 5. 100 μl Primary antibody was added (dilution see above) [0692] 6. Incubated at RT for 1 hour [0693] 7. Washed 3× with wash buffer [0694] 8. 100 μl Secondary antibody was added (dilution see above) [0695] 9. Incubated at RT for 1 hour [0696] 10. Washed 3× with wash buffer [0697] 11. 100 μl Substrate/Develop buffer was added (Reaction time 3 min) [0698] 12. 100 μl 2M H3PO4 was added [0699] 13. Endpoint was read at 450 nm

[3] = biological target: T3, biotinylated 20mer TLT-1 stalk peptide 13 (N-terminal biotin via 8-amino-3,6-dioxaoctanoic acid (bio-Oeg)); experiment: as above
T3 construct: also called well B 1
T3 peptide: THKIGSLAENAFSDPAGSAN
Experimental: as §1, §2

[4] = biological target: T4, biotinylated 20mer TLT-1 stalk peptide 6 (N-terminal biotin via 8-amino-3,6-dioxaoctanoic acid (bio-Oeg)); experiment: as above
T4 construct: also called well A 6
T4 peptide: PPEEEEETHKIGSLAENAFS
Experimental: as §1, §2

[5] = biological target: T5, biotinylated 20mer TLT-1 stalk peptide 14 (N-terminal biotin via 8-amino-3,6-dioxaoctanoic acid (bio-Oeg)); experiment: as above
T5 construct: also called well B 2
T5 peptide: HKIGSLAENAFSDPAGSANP
Experimental: as §1, §2

[6] = biological target: T6, biotinylated 20mer TLT-1 stalk peptide 8 (N-terminal biotin via 8-amino-3,6-dioxaoctanoic acid (bio-Oeg)); experiment: as above
T6 construct: also called well A 8
T6 peptide: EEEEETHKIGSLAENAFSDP
Experimental: as §1, §2

[7] = biological target: T7, biotinylated 16mer hTLT-1 stalk peptide 41 (SMILES …); experiment: as above
T7 construct: also called well D 5
T7 peptide: {Biotin-AEEA}-HKIGSLAENAFSDPAG-NH2
Experimental: as §1, §2

[8] = biological target: T8, biotinylated 20mer TLT-1 stalk peptide 11 (N-terminal biotin via 8-amino-3,6-dioxaoctanoic acid (bio-Oeg)); experiment: as above
T8 construct: also called well A11
T8 peptide: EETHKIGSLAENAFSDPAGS
Experimental: as §1, §2

[9] = biological target: T9, biotinylated 20mer TLT-1 stalk peptide 15 (N-terminal biotin via 8-amino-3,6-dioxaoctanoic acid (bio-Oeg)); experiment: as above
T9 construct: also called well B 3
T9 peptide: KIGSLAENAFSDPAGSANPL
Experimental: as §1, §2

Kd [1]: 3.75 nM
koff [1]: 0.0035 s⁻¹
kon [1]: 932000 M⁻¹ s⁻¹
absorbance at 450 nm [2]: > 3 A450
absorbance at 450 nm [3]: > 3 A450
absorbance at 450 nm [4]: > 3 A450
absorbance at 450 nm [5]: > 3 A450
absorbance at 450 nm [6]: > 3 A450
absorbance at 450 nm [7]: > 3 A450
absorbance at 450 nm [8]: > 3 A450
absorbance at 450 nm [9]: > 3 A450
B1: mAb 0061 HC2; LC2 (antibody, V domains shown)
VH: EVKLLESGGGLVQPGGSLKLSCAASGFDFSRYWMTWVRQAPGKGLEWIGEINPDSSTINYNPSLKDKFIISRDNAKNTLYLQMSEVRSEDTALYYCASGVFTSWGQGTLVTVSA
VL: DVVMTQTPLSLPVSLGDQASISCRSSQSLVHRNGNTYFHWALQKPGQSPKLLIYKVSNRFSGVPDRFSGSGSGTDFTLKISRVEAEDLGVYFCSQSTHVPYTFGGGTKLEIKR
notes: also called 0197-0000-0061; 0012HC.T60N + 0012LC.C36A
